How the values were obtained:
[1] = immunoblot of lysates and conditioned medium; details: glycan lost; control: WT CGA
[2] = immunoblot after BMA or MG132 treatment; details: glycan lost; control: WT CGA

In the case of “CGA (glycoprotein hormone α polypeptide): N52Q/N78Q double mutant (DM)”, the expression_or_secretion [1] is reported as “decreases”.
With “CGA (glycoprotein hormone α polypeptide): N52Q” the degradation_or_half_life [2] was “changes” and the expression_or_secretion [1] was “decreases”.
In the case of “CGA (glycoprotein hormone α polypeptide): N78Q”, the degradation_or_half_life [2] is reported as “changes” and the expression_or_secretion [1] is reported as “decreases”.

— PMC8920335
